Assay: soluble on expression in E. coli; label from the status in PepcDB or PDB records

Sequence | soluble on expression in E. coli
MAHHHHHHMNEPDAALEGVVDLTSNNFDSSVGKDVAALVEFYAPWCGHCKNLVPEFAKLGRAAAGAKDKVLIAKVDATAQKDLATRFEVNGYPTILFFPAGSQKPEKYSEGREAKAFVSYLNNQIKGLNLFLPREHKYVMALDQSNFDKVALDEGKDAFVLFYAPWCGHCKRLHPSFESLAKVYQNEKDLIIANVDADDKSNSEVTKRYKVEGYPTLVFFPKGNKGNPVNYEEGRTLDDMIKFVNERTGKKRTSSGDFDKTVGVDETVTNLMKEMAQSSKNKEERERLLAQIQQAVSPKALGEGAMHYIRIATNVLENGHEYISKEHERVGRLLKGSLTGPKRDSLTIRFNILSAIKGE | soluble
MSLKKFYHLVVRILSKMITPQVIDKPHIVFMMTFPEDIKPIIKALNNSSYQKTVLTTPKQAPYLSELSDDVDVIEMTNRTLVKQIKALKSAQMIIIDNYYLLLGGYNKTSNQHIVQTWHASGALKNFGLTDHQVDVSDKAMVQQYRKVYQATDFYLVGCEQMSQCFKQSLGATEEQMLYFGLPRINKYYTADRATVKAELKDKYGITNKLVLYVPTYREDKADNRAIDKAYFEKCLPGYTLINKLHPSIEDSDIDDVSSIDTSTLMLMSDIIISDYSSLPIEASLLDIPTIFYVYDEGTYDQVRGLNQFYKAIPDSYKVYTEEDLIMTIQEKEHLLSPLFKDWHKYNTDKSLHQLTEYIDKMVTKEGGSHHHHHH | soluble
SGSELIGRLAPRLGLAEPDMLRKAEEYLRLSRVKCVGLSARTTETSSAVMCLDLAASWMKCPLDRAYLIKLSGLNKETYQSCLKSFECLLGLNSNIGIRDLAVQFSCIEAVNMASKILKSYESSLPQTQQVDLDLSRPLFTSAALLSACKILKLKVDKNKMVATSGVKKAIFDRLCKQLEKIGQQVDREPGDVATPPRKRKKIVVEAPAKEMEKVEEMPHKPQKDEDLTQDYEEWKRKILENAASAQKATAE | soluble
YDRRVHRFRKNWERIIPTHSKIQYAGNMGLLSFGTGWDYGKRNQWETDLLLGFIPKYSSKKAKVTMTLKQNYMPWSINLGKGFSTEPLSCGLYLNTVFGNQFWVSEPERYPKGYYGFSSKVRIHVFMGQRLTYDIDPNRRFLAKSVTFFYEISTCDLYLISGVTNSYLRPRDYLSLSFGLKFQWL | not soluble
MGSDKIHHHHHHSLDQAKKLYNDGKYAEAKPVFEKLVKQAPSNASYNQWYGVCCFETGDLAGAEKHLKVAVKRRVQDAYRYLGEVYYQTYRFNEAEEMFDEYITLLTKKKQDVEPYQIRMDLANKASRMLDKVENVQIIDSLVVDKDNFLSAYTLSEESGTLTTYQDFFQTNDPGNSSVYMNQKEDKIYYAHSTDGNHNCLFTQSKLIDQWGDEKQLPMNINSDADDGYPFVLSDGVTIYYASKGNSSLGGYDLFVTRYNINSDTYLTPEQLGMPYNSPFNDYMMVIDEAKQLGWFVSDRYQPEGKVCVYLFIPNDNRERVDSEDIELKRARASIASIKDSWKPGSNYEELIHLAHTEIPYGRIEIKKDFTFPIHNDIVYYTLDDIQSPEAKNYYEKVVSIHKQIKELNEKLESLRASYIKGNKAKREQLKPTILDTEEKLNNLLGQPDEWEKKARNAEIVYLRNNHK | not soluble
MGSDKIHHHHHHMQKKGNKYGTHRVLAPQGVLPQPAEKVDNNMDEIYDNEILIDVKTLNIDSASFTQIHEQAGGDKAKIAEIMLGIVAKQGKHRNPVTGSGGMLLGVVEKIGDALKDKIDLKVGDKIATLVSLSLTPLRIDKIKEIRPDVDQVDIEGKAILFESGIYAKIPNDLPEKLALSALDVAGAPAQTAKLVKPGDTVLIIGAGGKSGMLCCYEAKKRAGVTGKVIGLCHSQKSTDRLKALGFCDHVFSADATKPVPVMEEIEKLTNGEMCDVTINNVNITDTEMTSILCTKNDGIVYFFSMATSFTKAALGAEGVGSDVTMIVGNGYTKGHAEITLQELRECEALRKVFTELYA | not soluble
MSLKITSIETIPIKVPIKPEFAIRSGRGGSHVVSPFLLVKVHTDAGITGLGEVSCTPRWSGEDQVSAAHFIKTYLAPLLEGEDPRQIESLTAKFRLGVAGNFFTKSGIEMALWDIAGKAAGKPVYELLGGTVREFIPTKWSVSGQEPDKAADIARWAVAQGFKAMKVKVGIEPDKDVARVAAVRAAIGSQIKLGVDANGGWSREVAASTIERLYASSIYFAEQPIPPEDLLYLPELRKQLKVPIIADESIYSLQDAMTLAHLQAADVFSIYVGKAGGIGPARKIAQFAESVGLKCTVGSNLELGIGSAAMIHLAIATHAIDAESYPCDIIGPMFYEDDMLVEPLPIVAGKAQPNSKPGLGVELNEKTVEKYRVCEGHHHHHH | soluble

Reference: the DeepSol protein solubility set
